Results as given in patent US20260098092A1 (CHULALONGKORN UNIVERSITY, published 2026).
Read-outs that look alike come from different tables or passages of the source.

B1: mCUSB0123 (antibody, V domains shown)
VH: QVQLQQSGPELVRPGESVKISCKGSGYTFTDYVMHWVKQSHAKSLEWIGVITIYNDITNYNQKFKGKATMTIDKSSSTAYMELARLTSEDSAIYYCAREGYDSYWYFDVWGAGTTVTVSS
VL: DVLMTQTPLSLPVSLGDQASISCRSSQTIVHSNGNTYLEWYLQKPGQSPKLLIYKVSNRFSGVPDRFSGSGSGTDFTLKISRVEAEDLGVYYCFQGSHLPYTFGGGTKLEIK
notes: Mouse monoclonal antibody purified from hybridoma
B2: xCUSB0123 (antibody, human IgG4, V domains shown)
VH: QVQLQQSGPELVRPGESVKISCKGSGYTFTDYVMHWVKQSHAKSLEWIGVITIYNDITNYNQKFKGKATMTIDKSSSTAYMELARLTSEDSAIYYCAREGYDSYWYFDVWGAGTTVTVSS
VL: DVLMTQTPLSLPVSLGDQASISCRSSQTIVHSNGNTYLEWYLQKPGQSPKLLIYKVSNRFSGVPDRFSGSGSGTDFTLKISRVEAEDLGVYYCFQGSHLPYTFGGGTKLEIK
notes: Chimeric: mouse variable regions joined to human IgG4/kappa constant regions; also called chimeric CUSB0123; not shown: human IgG4 constant region, UniProt P01861; human kappa constant region, UniProt P01834
B3: mCUSB0103 (antibody, V domains shown)
VH: DVKLVESGGGLVKPGGSLKLSCAASGFTFSSYTMSWVRQTPEKRLEWVAAISGGGSYTYYADSVKGRFTISRDNAKNTLSLQMSSLKSEDTAMYFCTSPYDFAMDYWGQGTSVTVSS
VL: DIQMTQTTSSLSASLGDRVTISCRASQDITNYLNWYQQKPDGSVKLLIYYTSRLHSGVPSRFRGSGSGTDYSLTISNLEQEDIATYFCQQGNTLPWTFGGGTKLEIK
notes: as for B1
B4: xCUSB0103 (antibody, human IgG4, V domains shown)
VH: DVKLVESGGGLVKPGGSLKLSCAASGFTFSSYTMSWVRQTPEKRLEWVAAISGGGSYTYYADSVKGRFTISRDNAKNTLSLQMSSLKSEDTAMYFCTSPYDFAMDYWGQGTSVTVSS
VL: DIQMTQTTSSLSASLGDRVTISCRASQDITNYLNWYQQKPDGSVKLLIYYTSRLHSGVPSRFRGSGSGTDYSLTISNLEQEDIATYFCQQGNTLPWTFGGGTKLEIK
notes: Chimeric: mouse variable regions joined to human IgG4/kappa constant regions; also called chimeric CUSB0103; not shown: human IgG4 constant region, UniProt P01861; human kappa constant region, UniProt P01834
B5: xCUSB0124 (antibody, human IgG4, V domains shown)
VH: QIQLVQSGPELKKPGETVKISCKASGYIFTNYGVTWVKQTPGKGLKWMTWINTNTGEPTSAEEFKGRFDFSSETSATTAYLQINNLKNEDTATYFCVRIRENAMDYWGQGTSVTVSS
VL: DIQMTQSPASQSASLGESVTITCLASQTIGTWLAWYQQKPGKSPQLLIYAATRLAVGVPSRFSGSGSGTKFSFKISRLQAEDFVSYYCQQLYSTPFTFGSGTKLEIK
notes: Chimeric: mouse variable regions joined to human IgG4/kappa constant regions; also called chimeric CUSB0124; not shown: human IgG4 constant region, UniProt P01861; human kappa constant region, UniProt P01834
B6: mCUSB0126 (antibody, V domains shown)
VH: VKLVESGGDLVKPGGSLKLSCAASGFPFSSYLMSWVRQTPEKRLEWVAAISGGGRDTYYPDNVKGRFTISRDNARNILYLQMSSLRSEDTAVYYCATRGSYAMDYWGQGTSVTVSS
VL: DIQMTQSPASQSASLGESVTITCLASQTIGTWLAWYQQKPGKSPQILIYAATNLADGVPSRFSGSGSGTKFSFKISSLQAEDFVSYYCQQLYSIPWTFGGGTKLEIK
notes: as for B1
B7: mCUSB0124 (antibody, V domains shown)
VH: QIQLVQSGPELKKPGETVKISCKASGYIFTNYGVTWVKQTPGKGLKWMTWINTNTGEPTSAEEFKGRFDFSSETSATTAYLQINNLKNEDTATYFCVRIRENAMDYWGQGTSVTVSS
VL: DIQMTQSPASQSASLGESVTITCLASQTIGTWLAWYQQKPGKSPQLLIYAATRLAVGVPSRFSGSGSGTKFSFKISRLQAEDFVSYYCQQLYSTPFTFGSGTKLEIK
notes: as for B1
B8: xCUSB0126 (antibody, human IgG4, V domains shown)
VH: VKLVESGGDLVKPGGSLKLSCAASGFPFSSYLMSWVRQTPEKRLEWVAAISGGGRDTYYPDNVKGRFTISRDNARNILYLQMSSLRSEDTAVYYCATRGSYAMDYWGQGTSVTVSS
VL: DIQMTQSPASQSASLGESVTITCLASQTIGTWLAWYQQKPGKSPQILIYAATNLADGVPSRFSGSGSGTKFSFKISSLQAEDFVSYYCQQLYSIPWTFGGGTKLEIK
notes: Chimeric: mouse variable regions joined to human IgG4/kappa constant regions; also called chimeric CUSB0126; not shown: human IgG4 constant region, UniProt P01861; human kappa constant region, UniProt P01834
B9: mCUSB0129 (antibody, V domains shown)
VH: VKLVESGGGLVKPGGSLKLSCAASGFPFSSYLMSWVRQTPEKRLEWVAAISGGGRDTYYPDSVKGRFTISRDNARNILYLQMSSLRSEDTALYYCARRGSYAMDYWGQGTSVTVSS
VL: DIQMTQSPASQSASLGESVTITCLASQTIGTWLAWYQQKPGKSPQILIYDATNLADGVPSRFSGSGSGTKFSFKISSLQAEDFVSYYCQQLYSIPWTFGGGTKLEIK
notes: as for B1
B10: xCUSB0129 (antibody, human IgG4, V domains shown)
VH: VKLVESGGGLVKPGGSLKLSCAASGFPFSSYLMSWVRQTPEKRLEWVAAISGGGRDTYYPDSVKGRFTISRDNARNILYLQMSSLRSEDTALYYCARRGSYAMDYWGQGTSVTVSS
VL: DIQMTQSPASQSASLGESVTITCLASQTIGTWLAWYQQKPGKSPQILIYDATNLADGVPSRFSGSGSGTKFSFKISSLQAEDFVSYYCQQLYSIPWTFGGGTKLEIK
notes: Chimeric: mouse variable regions joined to human IgG4/kappa constant regions; also called chimeric CUSB0129; not shown: human IgG4 constant region, UniProt P01861; human kappa constant region, UniProt P01834
B11: mCUSB0125 (antibody, V domains shown)
VH: DVQLRESGPGLVKPSQSLSLTCTVTGYSITSDYAWNWIRQFPGNKLEWMGYIYYSGTTSYNPSLKSRISITRDTSKNQFFLQLNSVTTEDTATYYCARNYGSAFYYFDYWGQGTTLTVSS
VL: DILMTQSPSSMSVSLGDTVTITCHASQGISSNIGWLQQKPGKSFKGLIYRGTNLEDGVPSRFSGSGSGADYSLTISSLESEDFADYYCVQYAQFPPTFGGGTKLEIK
notes: as for B1
B12: mCUSB0136 (antibody, V domains shown)
VH: QVQLKESGPGLVAPSQSLSITCTVSGFSLTTYDIIWIRQSPGKGLEWLGVIWTGGDTNYNSAFMSRLSISKDNSKSQIFLKMNSLQTDDTAIYYCVRDWAYWGQGTLVTVST
VL: NIVLTQSPASLAVSLGQRATISCRASESVDNYGNSFIQWYQQKPGQPPKLLIYFASNLQSGVPARFSGSGSRTDFTLTIDPVEADDAATYYCHQNNEDPFTFGSGTKLEIK
notes: as for B1
B13: zCUSB0125.9 (antibody, human IgG4, V domains shown)
VH: QVQLQESGPGLVKPSQTLSLTCTVSGYSITSDYAWNWIRQPPGKGLEWMGYIYYSGTTSYNPSLKSRISITRDTSKNQFSLKLSSVTAADTAVYYCARNYGSAFYYFDYWGQGTTLTVSS
VL: DIQMTQSPSSVSASVGDRVTITCHASQGISSNIGWLQQKPGKAFKGLIYRGTNLEDGVPSRFSGSGSGTDYTLTISSLQPEDFATYYCVQYAQFPPTFGGGTKLEIK
notes: domain: human IgG4 constant region; Humanized; human IgG4 S228P and kappa constant regions; also called CUSB0125-BMVH.3 with CUSB0125-BMVL.3; not shown: human kappa constant region

Assays:
[1] = molecular target: T1, recombinant human PD-1 His-tag protein (R&D Systems) (human, UniProt Q15116 25-167); assay: ELISA, PD-1 His-tag coated on plate, anti-mouse IgG Fc-HRP detection
T1 construct: Bought reagent; Used for the ELISA (coated) and for SPR (analyte); also called PD-1 protein; human PD-1 protein; not shown: His-tag
T1 sequence (Q15116 25-167 limits assumed): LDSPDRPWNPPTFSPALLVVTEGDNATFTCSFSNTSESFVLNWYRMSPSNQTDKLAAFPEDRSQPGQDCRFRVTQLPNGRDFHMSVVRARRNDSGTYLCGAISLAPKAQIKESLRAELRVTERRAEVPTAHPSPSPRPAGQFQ
Method: (§1) ELISA technique was used to select hybridoma mini-pools producing anti-PD-1 antibodies using the following procedure. MaxiSorp ELISA plate was coated with PD-1 His-tag (R&D System) in PBS buffer (10 ng/100 μL/well) at 4° C. overnight. […] The culture supernatant of each mini-pool (100 μL) was added to the plate then incubated for 1 hour at 37° C. After washing, the plate was probed with goat anti-mouse IgG Fcγ-HRP (Jackson Immuno Research) diluted 1:8,000 in PBST (100 μL/well) and incubated for 1 hour at 37° C. […] 1 M H₂SO₄ (50 μL/well) was used to stop the reaction. […] Hybridoma mini-pools with absorbance values of more than 1.0 were selected for further screening.
The purified antibodies were 2-fold serial diluted for eleven rounds starting from 2 μg/mL until reaching the final concentration of 0.977 ng/mL. The PD-1 binding activity of purified antibodies was evaluated by ELISA following the procedure mentioned in Example 2. The half-maximal effective concentration (EC₅₀) was calculated using GraphPad Prism® software.

[2] = molecular target: T2, human PD-1 on PD-1-expressing Jurkat effector cells (human, UniProt Q15116 25-288); assay: cell-based or functional assay
T2 sequence (Q15116 25-288): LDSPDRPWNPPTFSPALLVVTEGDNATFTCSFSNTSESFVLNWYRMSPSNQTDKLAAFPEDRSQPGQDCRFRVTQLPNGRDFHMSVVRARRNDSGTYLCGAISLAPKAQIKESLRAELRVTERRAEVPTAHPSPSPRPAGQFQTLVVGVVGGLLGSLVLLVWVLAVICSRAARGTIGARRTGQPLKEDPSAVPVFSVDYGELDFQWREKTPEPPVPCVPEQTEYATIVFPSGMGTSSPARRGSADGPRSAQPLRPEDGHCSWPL

[3] = molecular target: T2, human PD-1 on PD-1-expressing Jurkat …; assay: cell-based or functional assay; remark: listed apart in the source
[4] = molecular target: T1, recombinant human PD-1 His-tag protein …; assay: ELISA, PD-1 His-tag coated on plate, anti-human IgG Fc-HRP detection
Method: as §1
The purified chimeric antibodies were 2-fold serial diluted for eleven rounds starting from […] until reaching the final concentration of 0.977 ng/mL. The PD-1 binding activity of purified chimeric antibodies was evaluated by ELISA following the procedure mentioned in Example 2, while the goat anti-human IgG Fcγ-HRP antibody (Jackson Immuno Research) diluted 1:10.000 in PBST was used to detect chimeric antibodies.

[5] = molecular target: T1, recombinant human PD-1 His-tag protein …; assay: SPR, Biacore T200, antibody captured on Protein G chip, PD-1 His-tag injected, single-cycle kinetics, 1:1 model
Method: (§2) The Biacore T200 instrument, equipped with a Protein G sensor chip (GE Healthcare), was used to determine the binding kinetics between chimeric anti-PD-1 antibodies and PD-1 protein. Each purified chimeric anti-PD-1 antibody (1 μg/mL) was injected into the chip with a flow rate of 30 μL/min for 60 sec. […] The HBS-EP+buffer (GE Healthcare) was used as a buffer blank and diluent. The association constant (kₒₙ), dissociation constant (koff), and equilibrium constant (KD) values were calculated using Biacore T200 evaluation software (version 3.1) with a 1:1 Langmuir binding model curve fitting.

[6] = molecular target: T2, human PD-1 on PD-1-expressing Jurkat …; assay: cell-based or functional assay; remark: listed apart in the source
[7] = molecular target: T1, recombinant human PD-1 His-tag protein …; assay: SPR, Biacore T200, as in Example 8 (antibody on Protein G chip, PD-1 His-tag injected)
Method: as §2

Binder	EC50 [1]	PD-1/PD-L1 blockade bioassay, IC50 [2]	PD-1/PD-L1 blockade bioassay, IC50 [3]	EC50 [4]	Kd [5]	koff [5]	kon [5]	other results
B1	0.0701 µg/mL	2.43 µg/mL	–	–	–	–	–	–
B2	–	–	0.957 µg/mL	0.0353 µg/mL	1230 pM	0.000366 s⁻¹	298000 M⁻¹ s⁻¹	–
B3	0.0494 µg/mL	0.843 µg/mL	–	–	–	–	–	–
B4	–	–	0.593 µg/mL	0.0284 µg/mL	448 pM	0.000292 s⁻¹	653000 M⁻¹ s⁻¹	–
B5	–	–	2.93 µg/mL	0.0894 µg/mL	5920 pM	0.000912 s⁻¹	154000 M⁻¹ s⁻¹	–
B6	0.0442 µg/mL	0.846 µg/mL	–	–	–	–	–	–
B7	0.104 µg/mL	6.58 µg/mL	–	–	–	–	–	–
B8	–	–	0.43 µg/mL	0.0437 µg/mL	577 pM	0.000285 s⁻¹	493000 M⁻¹ s⁻¹	–
B9	0.074 µg/mL	1.83 µg/mL	–	–	–	–	–	–
B10	–	–	0.455 µg/mL	0.0347 µg/mL	621 pM	0.000293 s⁻¹	471000 M⁻¹ s⁻¹	–
B11	0.109 µg/mL	2.71 µg/mL	–	–	–	–	–	–
B12	0.0342 µg/mL	1.21 µg/mL	–	–	–	–	–	–
B13	–	–	–	–	–	–	–	PD-1/PD-L1 blockade bioassay, IC50 [6]: 0.462 µg/mL; Kd [7]: 249 pM; koff [7]: 0.000746 s⁻¹; kon [7]: 2.99e+06 M⁻¹ s⁻¹
